Laboratory results from article PMC4741518, “Adaptive Remodeling of the Bacterial Proteome by Specific Ribosomal Modification Regulates Pseudomonas Infection and Niche Colonisation” (PLoS Genetics, 2016).
Each block holds one compound with its values, some of them ahead of it.

Tests used:
RimA = molecular target: T1, RimA (Pseudomonas fluorescens, UniProt A0ACD4XU64); assay: phosphodiesterase assay, TLC of […]-cdG; type: biochemical; conditions: labelled compound (100 μM cdG with 0.07 μM 32P-cdG); 10 mM MgCl2, pH 8.0, 30 °C; product pGpG
T1 construct: gene U0037_01330; full-length, His6-tagged (pETM11-rimA), E. coli BL21(DE3) pLysS, Ni-NTA purified
T1 sequence (A0ACD4XU64 entry or part of it): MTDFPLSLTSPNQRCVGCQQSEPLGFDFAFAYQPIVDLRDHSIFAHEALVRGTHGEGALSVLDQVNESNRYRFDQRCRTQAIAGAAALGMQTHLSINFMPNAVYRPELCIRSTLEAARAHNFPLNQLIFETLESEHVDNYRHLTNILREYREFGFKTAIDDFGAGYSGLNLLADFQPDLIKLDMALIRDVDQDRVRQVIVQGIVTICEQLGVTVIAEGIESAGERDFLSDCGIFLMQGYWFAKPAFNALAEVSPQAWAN

[1] = molecular target: Ribosomal protein S6 modification protein RimK (P. fluorescens SBW25)
Chain of Ribosomal protein S6 modification protein RimK (P. fluorescens SBW25) (C3KE61 whole entry): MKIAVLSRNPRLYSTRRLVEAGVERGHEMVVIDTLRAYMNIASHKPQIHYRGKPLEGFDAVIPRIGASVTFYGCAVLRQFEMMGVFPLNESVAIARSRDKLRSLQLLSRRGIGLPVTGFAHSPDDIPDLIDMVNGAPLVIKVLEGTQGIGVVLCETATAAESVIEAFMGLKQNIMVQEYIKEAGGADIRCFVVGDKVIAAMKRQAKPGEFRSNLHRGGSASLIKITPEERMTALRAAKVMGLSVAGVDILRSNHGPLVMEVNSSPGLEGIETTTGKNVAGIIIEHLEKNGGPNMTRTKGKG

Compound: Nc1nc2c(ncn2[C@@H]2O[C@@H]3COP(=O)(O)O[C@H]4[C@@H](O)[C@H](n5cnc6c(=O)[nH]c(N)nc65)O[C@@H]4COP(=O)(O)O[C@H]3[C@H]2O)c(=O)[nH]1 [cdG]
phosphodiesterase assay, TLC of 32P-cdG (RimA): RimA PDE activity was subsequently confirmed (Fig 4C)

RimKPf ATPase activity (linked PK/LDH assay, with glutamate): Vmax on addition of purified RimA; 234.9 without RimA [1]: 364 nmol/min/mg
Compound: Conserved EAL domain protein RimA (enzyme)

RimKPf ATPase activity (linked PK/LDH assay, with glutamate): Vmax on addition of purified RimB; 113.6 without RimB [1]: 691 nmol/min/mg
Compound: Putative uncharacterized protein RimB (natural protein)
